Experiments:
PDGFR-α (human) = PDGFR-α (human) (UniProt P16234); assay: cell-based or functional assay
PDGFR-β (human) = PDGFR-β (human) (UniProt P09619); assay: cell-based or functional assay
Chain of PDGFR-β (human) (P09619 33-1106): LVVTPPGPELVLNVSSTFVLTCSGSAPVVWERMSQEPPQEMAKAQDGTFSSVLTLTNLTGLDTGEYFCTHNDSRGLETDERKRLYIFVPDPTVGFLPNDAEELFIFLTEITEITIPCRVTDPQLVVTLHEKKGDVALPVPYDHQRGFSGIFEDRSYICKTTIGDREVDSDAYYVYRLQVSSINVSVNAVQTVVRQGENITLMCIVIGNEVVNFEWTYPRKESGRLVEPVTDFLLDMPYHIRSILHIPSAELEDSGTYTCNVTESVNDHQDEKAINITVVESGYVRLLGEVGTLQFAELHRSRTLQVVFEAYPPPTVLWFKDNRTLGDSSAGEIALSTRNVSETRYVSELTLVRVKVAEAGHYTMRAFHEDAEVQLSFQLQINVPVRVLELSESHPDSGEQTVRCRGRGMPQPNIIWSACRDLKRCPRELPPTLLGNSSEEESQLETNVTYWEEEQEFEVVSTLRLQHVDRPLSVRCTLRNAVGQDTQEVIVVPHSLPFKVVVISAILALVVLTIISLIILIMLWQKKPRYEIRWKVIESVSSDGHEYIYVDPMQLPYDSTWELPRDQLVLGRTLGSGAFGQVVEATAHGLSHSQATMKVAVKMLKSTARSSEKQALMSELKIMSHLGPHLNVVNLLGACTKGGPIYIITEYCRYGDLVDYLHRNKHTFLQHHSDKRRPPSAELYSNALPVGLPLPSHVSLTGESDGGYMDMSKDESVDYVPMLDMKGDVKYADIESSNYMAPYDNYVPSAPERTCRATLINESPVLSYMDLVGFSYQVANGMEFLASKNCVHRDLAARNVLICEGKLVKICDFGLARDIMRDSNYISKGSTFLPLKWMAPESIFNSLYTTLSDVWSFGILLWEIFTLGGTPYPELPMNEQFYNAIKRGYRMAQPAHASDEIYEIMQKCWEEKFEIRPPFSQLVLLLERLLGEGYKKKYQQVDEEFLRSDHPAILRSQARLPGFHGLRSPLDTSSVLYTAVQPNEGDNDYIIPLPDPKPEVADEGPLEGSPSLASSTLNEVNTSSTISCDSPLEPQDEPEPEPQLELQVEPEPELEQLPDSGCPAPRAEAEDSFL

Chain of PDGFR-α (human) (P16234 24-1089): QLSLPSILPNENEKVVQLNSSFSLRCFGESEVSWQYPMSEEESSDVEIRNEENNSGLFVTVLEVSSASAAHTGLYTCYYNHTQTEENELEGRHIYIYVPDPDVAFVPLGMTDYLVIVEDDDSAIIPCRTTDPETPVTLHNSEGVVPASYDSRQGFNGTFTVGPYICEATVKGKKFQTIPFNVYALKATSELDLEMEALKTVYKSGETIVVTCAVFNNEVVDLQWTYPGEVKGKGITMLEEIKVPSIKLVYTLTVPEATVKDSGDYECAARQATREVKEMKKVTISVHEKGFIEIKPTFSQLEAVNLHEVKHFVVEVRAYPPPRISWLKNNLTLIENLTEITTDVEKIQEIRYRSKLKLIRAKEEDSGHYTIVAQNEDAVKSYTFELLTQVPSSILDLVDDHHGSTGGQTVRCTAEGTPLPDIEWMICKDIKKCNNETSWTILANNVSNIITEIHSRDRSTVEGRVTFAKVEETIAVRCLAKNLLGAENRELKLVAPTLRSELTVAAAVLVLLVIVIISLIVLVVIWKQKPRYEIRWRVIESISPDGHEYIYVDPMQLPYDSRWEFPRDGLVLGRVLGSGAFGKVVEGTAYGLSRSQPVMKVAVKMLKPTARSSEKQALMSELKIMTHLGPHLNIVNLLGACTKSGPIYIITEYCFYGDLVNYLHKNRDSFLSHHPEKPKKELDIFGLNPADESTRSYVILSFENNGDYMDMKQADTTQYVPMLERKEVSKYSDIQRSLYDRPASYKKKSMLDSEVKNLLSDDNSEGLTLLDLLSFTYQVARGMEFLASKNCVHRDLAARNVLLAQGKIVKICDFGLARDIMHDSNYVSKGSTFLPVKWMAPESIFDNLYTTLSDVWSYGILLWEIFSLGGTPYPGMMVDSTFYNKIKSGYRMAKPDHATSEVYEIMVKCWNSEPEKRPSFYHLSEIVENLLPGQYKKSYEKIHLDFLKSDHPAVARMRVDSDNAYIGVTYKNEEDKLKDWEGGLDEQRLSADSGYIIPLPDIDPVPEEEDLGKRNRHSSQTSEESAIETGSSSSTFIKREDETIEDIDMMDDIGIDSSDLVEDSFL

| GCTM2 expression (ELISA-based assay; hES cells treated 2 weeks in serum-free medium with S1P plus PDGF-AA) (PDGFR-α (human)) | GCTM2 expression (ELISA-based assay; hES cells treated 2 weeks in serum-free medium with S1P plus PDGF-AB) (% more GCTM2+ than the controls) (PDGFR-α (human)) | GCTM2 expression (ELISA-based assay; hES cells treated 2 weeks in serum-free medium with S1P plus PDGF-AB) (% more GCTM2+ than the controls) (PDGFR-β (human)) | Substance |
| --- | --- | --- | --- |
| 220 % of control | – | – | Human PDGF-AA (from UniProt P04085 87-211) (ligand) |
| – | 153 | 153 | Human PDGF-AB (from UniProt P04085 87-211; P01127 82-190) (ligand) |

— patent US7604990
